Assay results published in PMC2193908 (The Journal of Experimental Medicine, 2003).
Like-named read-outs stand apart in the source and are kept apart here.

What was measured:
Test in all cases: radioligand binding
[1] = biological target: CXCR3-B (alternatively spliced variant of CXCR3) (human) (UniProt P49682)
[2] = biological target: CXCR3-A (classic CXC chemokine receptor 3) (human) (UniProt P49682)
[3] = biological target: CXCR3-B on the renal carcinoma ACHN cell line (human (endogenous in ACHN)) (UniProt P49682)
[4] = biological target: CXCR3-B (alternatively spliced variant of CXCR3) (human) (UniProt P49682); remark: listed apart in the source
[5] = biological target: T1, CXCR3-A (classic CXC chemokine receptor 3) (human, UniProt P49682-1 1-368)
T1 sequence (looked up): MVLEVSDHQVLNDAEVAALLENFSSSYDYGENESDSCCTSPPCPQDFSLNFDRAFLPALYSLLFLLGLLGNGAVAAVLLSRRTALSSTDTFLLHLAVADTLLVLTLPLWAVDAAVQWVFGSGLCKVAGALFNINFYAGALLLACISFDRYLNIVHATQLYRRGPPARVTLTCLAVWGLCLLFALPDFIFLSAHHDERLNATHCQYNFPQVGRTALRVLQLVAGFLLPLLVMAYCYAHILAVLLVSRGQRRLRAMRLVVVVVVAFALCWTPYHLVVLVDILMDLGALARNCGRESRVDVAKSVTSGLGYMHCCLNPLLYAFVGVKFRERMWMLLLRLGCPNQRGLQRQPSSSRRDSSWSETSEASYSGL

[6] = biological target: T2, CXCR3-B (alternatively spliced variant of CXCR3) (human, UniProt P49682-2 1-415)
T2 sequence (looked up): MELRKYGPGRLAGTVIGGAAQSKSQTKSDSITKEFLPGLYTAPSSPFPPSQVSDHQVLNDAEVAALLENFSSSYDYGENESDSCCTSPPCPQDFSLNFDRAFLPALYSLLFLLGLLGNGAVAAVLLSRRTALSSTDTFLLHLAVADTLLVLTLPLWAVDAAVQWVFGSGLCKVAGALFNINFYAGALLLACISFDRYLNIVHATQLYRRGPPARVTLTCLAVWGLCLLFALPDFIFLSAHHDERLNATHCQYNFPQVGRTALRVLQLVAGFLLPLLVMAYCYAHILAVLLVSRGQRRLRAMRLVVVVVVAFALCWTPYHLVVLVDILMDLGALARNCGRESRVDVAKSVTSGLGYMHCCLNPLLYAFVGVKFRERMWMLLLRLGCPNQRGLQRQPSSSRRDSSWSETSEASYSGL

[7] = biological target: T3, CXCR3-B on the renal carcinoma ACHN cell line (human (endogenous in ACHN), UniProt P49682-2 1-415)
T3 sequence (looked up): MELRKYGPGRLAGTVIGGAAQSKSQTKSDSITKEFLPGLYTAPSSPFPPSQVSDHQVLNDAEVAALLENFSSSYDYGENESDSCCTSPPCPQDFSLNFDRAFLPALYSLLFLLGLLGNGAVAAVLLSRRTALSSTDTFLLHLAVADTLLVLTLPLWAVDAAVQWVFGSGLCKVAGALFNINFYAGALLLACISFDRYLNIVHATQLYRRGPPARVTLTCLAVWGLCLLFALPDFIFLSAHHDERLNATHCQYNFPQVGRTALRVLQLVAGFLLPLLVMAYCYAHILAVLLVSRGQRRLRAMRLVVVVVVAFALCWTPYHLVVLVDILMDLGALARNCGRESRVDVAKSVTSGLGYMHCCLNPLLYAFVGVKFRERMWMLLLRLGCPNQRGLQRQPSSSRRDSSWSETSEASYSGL

## CXCL4/PF4 (platelet factor 4) (ligand)
[1]
  IC50: 1.85 nM
[2]
  IC50: 448 nM
[3]
  IC50: 6.83 nM
[4]
  IC50: 7.46 nM

B1: CXCL11/I-TAC (ligand, human, UniProt O14625 22-94, looked up)
chain: FPMFKRGRCLCIGPGVKAVKVADIEKASIMYPSNNCDKIEVIITLKENKGQRCLNPKSKQARLIIKKVERKNF
[5]
  IC50: 0.41 ± 0.14 nM
[6]
  IC50: 32 ± 10.2 nM
[7]
  IC50: 49.6 ± 11.3 nM

B2: CXCL9/Mig (ligand, human, UniProt Q07325 23-125, looked up)
chain: TPVVRKGRCSCISTNQGTIHLQSLKDLKQFAPSPSCEKIEIIATLKNGVQTCLNPDSADVKELIKKWEKQVSQKKKQKNGKKHQKKKVLKVRKSQRSRQKKTT
[5]
  IC50: 33 ± 24 nM
[6]
  IC50: 133 ± 46.5 nM
[7]
  IC50: 88.5 ± 69.3 nM
